Key:
[1] = test system: rabbit plasma clotting time (aPTT); experiment: In vivo reversal of Compound A anticoagulant effect by Fab, rabbit plasma aPTT; conditions: Compound A 1 mg/kg IV, mean of 3 animals
Method: In vivo experiments were conducted in accordance with the regulations of the Animal Care and Use Committee of the Bristol-Myers Squibb Company. Rabbits (male New Zealand White, 2 to 4 kg) were instrumented with indwelling catheters in the central ear artery for blood sampling and marginal ear vein for substance administration. Compound A was administered as a constant intravenous infusion at a dose of 1.0 mg/kg over 10 minutes. Beginning 20 minutes after the Compound A infusion was complete, the antibody Fab fragment 26D5-75616-348-F10-Fab-SHORT was administered as a constant intravenous infusion at a dose of 160 mg/kg over 10 minutes. […]
The anticoagulant effects of Compound A were measured in activated partial thromboplastin time (aPTT). The aPTT was determined using ACTIN® FS (Siemens/Dade-Behring) following the directions in the package insert. […] The clotting time was the time in seconds from the moment calcium chloride was added until a clot was detected. […]

[2] = Competitive TR-FRET assay, mAbs (T0 and T24); type: binding; conditions: 37° C.; difference between T0 and T24 IC50s; IgG1f mAb format
Method: A competitive TR-FRET (time-resolved fluorescence resonance energy transfer) assay was developed to rank-order the dissociation of α-Compound A mAbs from Compound A as equilibrium is reached at 37° C. The assay buffer was HBS-N (10 mM HEPES, 150 mM NaCl, pH 7.4; GE Healthcare), 0.1% (w/v) BSA (bovine serum albumin; Sigma), 2% DMSO (dimethyl sulfoxide; Sigma). All reagents were prepared in assay buffer and dispensed in equal volumes into white 384 microplates with final volume of 20 μl per well at the following final concentrations: 4 nM COMPOUND 5, the biotinylated analog of COMPOUND 2, a 100 0.1 nM 7-pt titration of human α-Compound A antibodies, 0.1 nM europium-labeled α-mouse IgG (LANCE Eu-W1024; PerkinElmer), 5 nM streptavidin-D2 (Cisbio), and 4 nM mAb 26D5 VH_A10G_Y33A_S53P_M89V_G95A; VK_W32N_H38Q (P1-075621, the second-round optimization parent 26D5-295-B08 formatted with mouse IgG Fc). COMPOUND 5 and α-Compound A antibody titrations were added first to the microplate, and were subjected to an initial incubation at 37° C., 1000 rpm, for one hour to facilitate antibody binding to the compound. After the initial incubation period, the europium α-mouse IgG, streptavidin-D2, and 26D5-mouse IgG (P1-075621) were added sequentially, then the plate was returned to 37° C., 1000 rpm incubation. Microplates were read using a Perkin Elmer EnVision plate reader, and the measured FRET signal was defined as [665 nm]/[620 nm]*10,000. Microplates were read at 30 minutes (T0) and after 24 hour (T24) intervals. […]

[3] = SPR (Biacore) Protein A mAb capture, Compound A injected; conditions: 37° C., binding to Compound A, for rank ordering only
Procedure, shortened: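 Parent and affinity-matured IgG1f mAbs were captured at 2 ug/mL on a high-density protein A chip. Compound A was injected at 100–3 nM for 2 min, with at least 450 s dissociation, at 37 °C in PBS pH 7.4 with 0.05% Tween 20 and 2% DMSO. Apparent affinities were used for rank ordering only, because off-rates were too slow to measure.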

[4] = Thermal stability by Differential Scanning Calorimetry; type: physicochemical; conditions: DSC; Fab 1 mg/ml
Method: Thermal stability analysis was performed with UNchained Labs UNcle™/Tagg analysis with Fabs at a concentration of 20 uM with or without Compound A at a concentration of 50 uM (or control compound). Capillaries were scanned from 25 to 90° C. at 0.5° C./min. In addition, select Fabs were also analyzed by Differential Scanning calorimetry analysis using the Malvern MicroCal VP-Capillary DSC. Samples were buffer matched and loaded with Fabs at a concentration of 10 uM with or without Compound A at a concentration of 15 uM (or control compound). Scan temperature range was 15-110° C. at a rate of 60° C./Hr (Filter period: 16 sec, Gain: None). Sample analysis was using software provided by the manufacturer for both the UNcle and the Malvern Capillary DSC. FIG. 15 and Table 14 below show representative DSC results.

[5] = Kinetic Exclusion Assay (KinExA) solution affinity; type: binding; conditions: for KinExA Ka: complex association rate, 200 pM Fab and 400 pM Compound A
Method: The solution affinity of the antibody Fab fragments disclosed herein for Compound A was measured using a Kinetic Exclusion Assay (KinExA). […] The relative unbound concentration of 26D5 affinity matured antibody Fab fragment was measured by capture on a streptavidin coated bead with COMPOUND 5 followed by detection with a fluorescently labeled antibody that recognizes the human IgG Fab. Kinetic analysis to determine the complex association rate was measured with the same assay format except that a single tube of the mixture was prepared (200 pM Fab and 400 pM Compound A) and time points were removed immediately (no equilibration). Two Fabs, 26D5-75229-343-A10-Fab-SHORT and 26D5-75616-348-F10-Fab-SHORT, were identified as the top two Fabs by DSC thermal stability and KinExA analysis. Antibody Fab fragment 26D5-75616-348-F10-Fab-SHORT (SEQ ID NO: 106 and SEQ ID NO: 164; see Table 3) was selected for X-ray crystallography as described below and in vivo studies as described in Example 12.

Molecule | T0-T24 IC50 shift (Δ) [2] [nM] | Tm1 (° C.) [4] [°C] | KinExA Ka [5] [M⁻¹ s⁻¹] | other results
C[C@@H]1CCC[C@H](n2cnc(-c3cc(Cl)ccc3-n3cc(Cl)nn3)cc2=O)c2cc(ccn2)-c2c(cnn2C(F)F)NC1=O [Compound A, (5R,9S)-9-(4-(5-chloro-2-(4-chloro-1H-1,2,3-triazol-1-yl)phenyl)-6-oxopyrimidin-1(6H)-yl)-21-(difluoromethyl)-5-methyl-21H-3-aza-1(4,2)-pyridina-2(5,4)-pyrazolacyclononaphan-4-one, reference compound] | – | – | – | rabbit plasma aPTT increase relative to baseline [1]: approximately 2 fold
26D5-GVR-Q-FT-Fab-LONG mAb: IgG1f mAb called P1-072226, S31 in place of R31, i.e. 26D5-GV-Q (VH SEQ ID NO: 82, VL SEQ ID NO: 99) (antibody, V domains shown) VH: EVQLVESGGGLIQPGGSLRLSCAASGFTVSSNYMSWVRQAPGKGLEWVSFIYSGGRTYYADSVKGRFTISRDNSKNTLYLQMNSLRAEDTAVYYCARGGFGGGDYWGQGTLVTVSS VL: DIQMTQSPSSVSASVGDRVTITCRASQGISSWLAWYQQKPGKAPKLLIYAASSLQSGVPSRFSGSGSGTDFTLTISSLQPEDFATYYCQQANSFPLTFGGGTKVEIK | 63 | – | – | –
26D5-75747-348-D07-mAb: human IgG1f/kappa mAb; VH SEQ ID NO: 57, VL SEQ ID NO: 90 (antibody, V domains shown) VH: EVQLVESGGGLIQPGGSLRLSCAASGFTVSSNAFSWVRQAPGKGLEWVSYIYSGGRTYYADSVKGRFTISRDNSKNTLYLQMNSLRAEDTAVYYCAAAGFGGGDYWGQGTLVTVSS VL: DIQMTQSPSSVSASVGDRVTITCRASQGISSQVAWYQQKPGKAPKLLIYYASSLQSGVPSRFSGSGSGTDFTLTISSLQPEDFATYYCQQGNEFPLTFGGGTKVEIK | 4.3 | – | – | Kd ([3]; apparent affinity, listed as 26D5-75747-0348-D07-mAb, read-out: KD): < 0.03 nM; Kd ([3]; apparent affinity, read-out: KD): < 0.02 nM; Ka ([3]; apparent): 2e+06 M⁻¹ s⁻¹; Kd ([3]; apparent): <5e-05 s⁻¹
26D5-75229-343-A10-Fab-SHORT: antibody Fab fragment; VH SEQ ID NO: 52, VL SEQ ID NO: 84; sequence in Table 3 (antibody, V domains shown) VH: EVQLVESGGGLIQPGGSLRLSCAASGFTVSSNAMSWVRQAPGKGLEWVSYIYPGGRTYYADSVKGRFTISRDNSKNTLYLQMNSLRAEDTAVYYCARAGFGGPDYWGQGTLVTVSS VL: DIQMTQSPSSVSASVGDRVTITCRASQGISSNLAWYQQKPGKAPKLLIYAASSLQSGVPSRFSGSGSGTDFTLTISSLQPEDFATYYCQQANQFPLTFGGGTKVEIK | – | 74.9 | 50000 | –
26D5-75202-343-A09-Fab-SHORT: antibody Fab fragment; VH SEQ ID NO: 54, VL SEQ ID NO: 86; sequence in Table 3 (antibody, V domains shown) VH: EVQLVESGGGLIQPGGSLRLSCAASGFTVSSNAMSWVRQAPGKGLEWVSYIYPGGRTYYADSVKGRFTISRDNSKNTLYLQMNSLRAEDTAVYYCARAGFGGGDYWGQGTLVTVSS VL: DIQMTQSPSSVSASVGDRVTITCRASQGIYSNLAWYQQKPGKAPKLLIYAASSLQSGVPSRFSGSGSGTDFTLTISSLQPEDFATYYCQQANEFPLTFGGGTKVEIK | – | 75.3 | 150000 | Kd ([5]; solution affinity for Compound A, Fab 100, 200, 300 pM, equilibrated 24-72 hours): 0.019 nM
P1-072963: IgG1f mAb format of first round optimization progeny 26D5-295-B08; VH SEQ ID NO: 60, VL SEQ ID NO: 88 (antibody, V domains shown) VH: EVQLVESGGGLIQPGGSLRLSCAASGFTVSSNAMSWVRQAPGKGLEWVSFIYPGGRTYYADSVKGRFTISRDNSKNTLYLQMNSLRAEDTAVYYCARAGFGGGDYWGQGTLVTVSS VL: DIQMTQSPSSVSASVGDRVTITCRASQGISSNLAWYQQKPGKAPKLLIYAASSLQSGVPSRFSGSGSGTDFTLTISSLQPEDFATYYCQQANSFPLTFGGGTKVEIK | 20.5 | – | – | –
